Experimental data from US20210253725A1 (BIONTECH, published 2021).
Values belong to the binder of their own block, whether it stands above or below them.

Experiments:
[1] = target: T1, CD27 expressed on the cell surface (HT1080_CD27 cells) (human, UniProt P26842 20-260); assay: cell-based or functional assay
T1 sequence (looked up): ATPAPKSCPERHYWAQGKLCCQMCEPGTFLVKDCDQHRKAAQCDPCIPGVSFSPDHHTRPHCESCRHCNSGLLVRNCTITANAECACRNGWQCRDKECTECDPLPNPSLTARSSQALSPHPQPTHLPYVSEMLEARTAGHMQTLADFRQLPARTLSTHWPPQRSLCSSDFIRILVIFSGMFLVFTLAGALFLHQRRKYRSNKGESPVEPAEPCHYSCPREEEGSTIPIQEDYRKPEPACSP

[2] = target: T2, CD27 protein (His-tagged, Sino Biological Inc. 10039-H08B1) (human, UniProt P26842 20-192); assay: ELISA on coated His-tagged CD27
T2 construct: bought; coated onto ELISA plates; also called human CD27; recombinant protein; not shown: His tag
T2 sequence (looked up): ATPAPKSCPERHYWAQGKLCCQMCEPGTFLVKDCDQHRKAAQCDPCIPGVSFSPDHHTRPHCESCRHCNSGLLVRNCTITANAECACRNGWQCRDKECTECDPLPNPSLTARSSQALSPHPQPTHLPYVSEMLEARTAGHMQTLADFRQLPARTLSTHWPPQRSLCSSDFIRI

[3] = target: T1, CD27 expressed on the cell surface …; assay: cellular binding assay, HT1080_CD27 cells
Further: test concentration or dose not given here.

- IL-8, cross-linked by F(ab')2 fragment [abs. corr.] [1]: 1.07 abs. corr.
- IL-8 [abs. corr.] [1]: 0.13 abs. corr.
- ELISA [abs. corr.] [2]: 3.15 abs. corr.
- Cellular binding assay [RFU] [3]: 395 RFU
B1: P018.S.03.A.H02 (antibody, V domains shown)
VH: QSLEESGGRLMTPGGSLTLTCTVSGFSLSDYNMQWVRQAPGEGLEWIGIISLGGTTDYANWVKGRFTISKTSTTVDLKMTSLTASDTATYFCARDPAGGNWAELDLWGQGTLVTVSS
VL: DIVMTQTPASVSEPVGGTVTIKCQASQSISSWLSWFQQKPGQPPKLLIYDASTLASGVPSRFKGSGSGTEFTLTISDLESADAATYYCQQGSTISNVDNAFGGGTEVVVK
notes: V regions on human Ig constant parts; also called AB27_60

- IL-8, cross-linked by F(ab')2 fragment [abs. corr.] [1]: 1.54 abs. corr.
- IL-8 [abs. corr.] [1]: 0.263 abs. corr.
- ELISA [abs. corr.] [2]: 3.16 abs. corr.
- Cellular binding assay [RFU] [3]: 360 RFU
B2: P018.S.09.A.A03 (antibody, V domains shown)
VH: QEQLVESGGGLVQPEGSLTLTCTASGFSFSSSYYMCWVRQAPGKGPEWIACIYTYSGDTDYANWAKGRFTISKTSSTTVTLQMTSLTAADTATYFCAKAGYGGYGYPIFNLWGPGTLVTVSS
VL: AFELTQTPSSVEAAVGGTVTIKCQASQSIGSSLAWYQQKPGQRPKLLMYYVSTLASGVSSRFKGSGSGTEFTLTISDLESADAATYYCQSYYGSGTTVFWAFGGGTEVVVK
notes: V regions on human Ig constant parts; also called AB27_144

- IL-8, cross-linked by F(ab')2 fragment [abs. corr.] [1]: 1.21 abs. corr.
- IL-8 [abs. corr.] [1]: 0.325 abs. corr.
- ELISA [abs. corr.] [2]: 3.14 abs. corr.
- Cellular binding assay [RFU] [3]: 206 RFU
B3: P018.S.03.A.B05 (antibody, V domains shown)
VH: QEQLEESGGDLVKPEGSLTLTCTASGFDLSSRYWICWVRQAPGKGLEWIGCIKTGFSNTWYASWATGRFTFSKASSTTVTLQMTSLTVADTATYFCARIAAAASASDDFRLWGPGTLVTVSS
VL: AQVLTQTPSSVSAAVGGTVTISCQSSKSVYNKWLSWFQQKPGQPPKLLIYDASDLASGVPSRFKGSGSGTEFTLTISDVQSDDAATYFCLGHYDSSSDRFVFGGGTEVVVK
notes: V regions on human Ig constant parts; also called AB27_43

- IL-8, cross-linked by F(ab')2 fragment [abs. corr.] [1]: 1.22 abs. corr.
- IL-8 [abs. corr.] [1]: 0.327 abs. corr.
- ELISA [abs. corr.] [2]: 3.16 abs. corr.
- Cellular binding assay [RFU] [3]: 281 RFU
B4: P018.S.06.A.E04 (antibody, V domains shown)
VH: QEQLEESGGDLVQPEGSLTLTCTVSGFSFDSNYWICWVRQAPGKGPEWIACIMTGDGSIYYATWAKGRFTISKTSSTTVTLQMTSLTAADTATYFCARGYDGIHGGDNYGHVFNLWGPGTLVTVSS
VL: AFELTQTPFSVSAVVGGTVTINCQASENIYTLLAWYQQKSGQPPKLLIYRASTLTSGVPSRFKGSGSGTQFTLTISDLESADAATYYCQGYYVDSGNTFGGGTEVVVK
notes: V regions on human Ig constant parts; also called AB27_106

- IL-8, cross-linked by F(ab')2 fragment [abs. corr.] [1]: 1.08 abs. corr.
- IL-8 [abs. corr.] [1]: 0.063 abs. corr.
- ELISA [abs. corr.] [2]: 3.16 abs. corr.
- Cellular binding assay [RFU] [3]: 304 RFU
B5: P018.S.06.A.F03 (antibody, V domains shown)
VH: QSLEESGGDLVRPGASLTLTCTASGLSFSDRYWISWVRQAPGKGLEWIASIYTGSDGVADYATWAKGRVTISKTSSTTVTLQMTSLTAADTATYFCARDREYGSNTGVYSLWGPGTLVTVSS
VL: DVLMTQTPSSVSPAVGGTVTIKCQASQNIYSNLAWYQQKPGQRPKLLVYDASNLEYGVPSRFKGSGSGTEYTLTISDLESADAANYYCQCTYYGNNYITFGGGTEVVVR
notes: V regions on human Ig constant parts; also called AB27_108

- IL-8, cross-linked by F(ab')2 fragment [abs. corr.] [1]: 2.1 abs. corr.
- IL-8 [abs. corr.] [1]: 0.206 abs. corr.
- ELISA [abs. corr.] [2]: 3.14 abs. corr.
- Cellular binding assay [RFU] [3]: 11 RFU
B6: P018.S.10.A.C05 (antibody, V domains shown)
VH: QSVEETGGRLVTPGTPLTLTCAASGVSLSGYYAMSWVRQAPGKGLEWIGYLDATGSTYYASWVKGRFIISRPSTTVDLQITSPTIEDTATYFCARGSYDGVGYNWGLWGQGTLVTVSS
VL: DIVMTQTPASVSEPVGGTVTIKCQASESIYNGLAWYQQKPGQPPKRLIYGASTLTSGVPSRFKGSGSGTEFTLTISDLESDDAATYYCQSNYGSGSRSNYIFGGGTEVVVK
notes: V regions on human Ig constant parts; also called AB27_173

- IL-8, cross-linked by F(ab')2 fragment [abs. corr.] [1]: 1.09 abs. corr.
- IL-8 [abs. corr.] [1]: 0.588 abs. corr.
- ELISA [abs. corr.] [2]: 3.15 abs. corr.
- Cellular binding assay [RFU] [3]: 289 RFU
B7: P018.S.03.A.H03 (antibody, V domains shown)
VH: QSLEESGGDLVKPEGSLTLTCTASGLDFSSSYWICWVRQAPGKGLEWIACIHAGSSGTTHYATWAKGRFTISKTSSTTVTLQMTSLTAADTATYFCARGAVYGGGSYDNFNLWGPGTLVTVSS
VL: AYDMTQTPASVEVAVGGTVTIKCQASQSIGTYLSWYQQKPGQPPKLLIYAASTLASGVQPRFKGSGSGTQFTLTISGVQSDDAATYYCQQGYSADNVANSFGGGTEVVVK
notes: V regions on human Ig constant parts; also called AB27_61

- IL-8, cross-linked by F(ab')2 fragment [abs. corr.] [1]: 1.13 abs. corr.
- IL-8 [abs. corr.] [1]: 0.272 abs. corr.
- ELISA [abs. corr.] [2]: 3.14 abs. corr.
- Cellular binding assay [RFU] [3]: 269 RFU
B8: P018.S.06.A.C03 (antibody, V domains shown)
VH: QSLEESGGGLFQPGGSLTLTCKASGLDFSTNYYMCWVRQAPGKGLELIACISTSSGNTWYASWAKGRFTISKTSSTTVTLQMTSLTAADTATYFCARCDIVYVGYGYASRLDLWGQGTLVTVSS
VL: AQVLTQTPSPVSAAVGGTVTINCQASESVYNNNNLAWYQQKPGQPPKFLIYGASSLASGVPSRFKGSGSGTQFTLTISDLESDDAATYYCAGGGSTSVGAFGGGTEVVVK
notes: V regions on human Ig constant parts; also called AB27_101
